The results in this text go back to article PMC10382590, “Six states of Enterococcus hirae V-type ATPase reveals non-uniform rotor rotation during turnover” (Communications Biology, 2023).

The chains are these.
B1: Enterococcus hirae V-ATPase d-subunit (natural protein, UniProt P43456 1-328, looked up)
chain: MEYHELNPLIRGRELELISKDTFEQMIQTDSIDSLGEILQSTIYQPYIYDGFDKDFEANLSQERSKLFQWLKESAPEPEIVWIYTMRYTFHNLKVLTKAEITGQNLDHLYIHDGFYSLEVLKDAIHTQVSVELPDSLMDYIREVHEYCEESTILQGIDVIYDRCFLTEQRRLGEQLGYPELLEEIIAFIDLTNITTTARGILQHRSAGFMTTVISSSGSIPKDTLLSFVRGEMASFTQFLLTTDYSELLKQVIHEEQIDLVSLEQLKDDYLSSFYQVAQTQAFGPLPLLAFLNAKEVESKNLRLLIIGKRNHFSLEQLKERMRQVYDL
notes: d-subunit (terminus of the rotor shaft) of the V-type Na+-ATPase of Enterococcus hirae; Modelled by homology (I-TASSER, template PDB 1R5Z of another species) and fitted as a rigid body; also called rotor shaft terminus; source: E. coli, recombinant; purified as part of the whole EhV-ATPase complex (Ni-NTA, Superdex 200, 0.05% DDM)
B2: Enterococcus hirae V-ATPase D-subunit (natural protein)
chain: MRLNVNPTRMELTRLKKQLTTATRGHKLLKDKQDELMRQFILLIRKNNELRQAIEKETQTAMKDFVLAKSTVEEAFIDELLALPAENVSISVVEKNIMSVKVPLMNFQYDETLNETPLEYGYLHSNAELDRSIDGFTQLLPKLLKLAEVEKTCQLMAEEIEKTRRRVNALEYMTIPQLEETIYYIKMKLEENERAEVTRLIKVKNMGTEE
notes: D-subunit (rotor shaft) of the V-type Na+-ATPase of Enterococcus hirae; also called rotor D-subunit; source: E. coli, recombinant; purified as part of the whole EhV-ATPase complex (Ni-NTA, Superdex 200, 0.05% DDM)
B3: Enterococcus hirae V-ATPase EG peripheral stalk (complex)
chain 1: MPIDKIITQINETAQLERASFEEMKRKEIDQKFEVKKWQIEADFQKEKASKLEEIERSYRQLRNKQKMQVKQEILNAKQEVLQRLFTEATLQLENEPKEEQLALMKQMIQTLPINGTARLIPGEKSADILTPAVIAEWNEELPFELIREDFTEKAQAGLIIDDAGIQYNFLFSHLIKEIQETMSAEIAKELFD
chain 2: MARILTRIKEAEENNQKKEEQVKAELAQYEQLKNNELIDLNKEFQERLTKLMKEKEKNEEEVTEDEQHKLELILEQFRQKVLEIEKTYLEKEEEEIAKKKNLTNEIIERMKQNNGCH
notes: E-subunit of the V-type Na+-ATPase of Enterococcus hirae; G-subunit of the V-type Na+-ATPase of Enterococcus hirae; Two such stalks stand in the complex; E and G were modelled by homology (templates PDB 4DT0 and 5GAS of other species); also called EG stalk complex; EG stalks; source: E. coli, recombinant; purified as part of the whole EhV-ATPase complex (Ni-NTA, Superdex 200, 0.05% DDM)

Test [1] has as its target T1, Enterococcus hirae V-ATPase a-subunit (Enterococcus hirae, UniProt P43439 1-664).
T1 construct: a-subunit (stator, membrane-integrated region and extrinsic arm) of the V-type Na+-ATPase of Enterococcus hirae; Modelled by homology (I-TASSER, template PDB 6C6L of another species); also called stator a-subunit; source: E. coli, recombinant; purified as part of the whole EhV-ATPase complex (Ni-NTA, Superdex 200, 0.05% DDM)
T1 sequence (looked up): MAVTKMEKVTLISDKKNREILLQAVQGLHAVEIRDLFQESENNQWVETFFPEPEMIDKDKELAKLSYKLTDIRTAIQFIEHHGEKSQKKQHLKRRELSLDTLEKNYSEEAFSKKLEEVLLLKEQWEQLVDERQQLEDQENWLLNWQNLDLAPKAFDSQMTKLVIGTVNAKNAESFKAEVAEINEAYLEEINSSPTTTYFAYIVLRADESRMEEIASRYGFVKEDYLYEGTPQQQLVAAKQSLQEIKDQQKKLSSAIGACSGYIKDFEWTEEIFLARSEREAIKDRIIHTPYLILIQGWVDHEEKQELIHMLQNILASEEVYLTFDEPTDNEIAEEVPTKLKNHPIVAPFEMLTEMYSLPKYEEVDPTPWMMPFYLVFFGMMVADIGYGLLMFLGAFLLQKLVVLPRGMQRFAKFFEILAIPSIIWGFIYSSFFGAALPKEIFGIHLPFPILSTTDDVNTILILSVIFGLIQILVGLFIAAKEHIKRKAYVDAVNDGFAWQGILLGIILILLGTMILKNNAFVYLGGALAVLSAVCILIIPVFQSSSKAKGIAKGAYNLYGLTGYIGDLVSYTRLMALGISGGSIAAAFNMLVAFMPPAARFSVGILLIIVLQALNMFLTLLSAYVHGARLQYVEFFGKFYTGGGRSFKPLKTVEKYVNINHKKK
Description: cryo-EM structure; detergent-solubilised (0.05% DDM) whole EhV-ATPase, 0.13 mM, with 7 mM ATP, 100 mM Na+ and Mg2+, vitrified during turnover; six states (1, 1', 2, 2', 3, 3') sorted from one sample, whole-complex maps 4.3-7.7 A, V1-focussed maps 3.8-7.7 A; crystal structures and homology models fitted into the maps. Conditions: both partners purified.

Test [2] addresses B1. The description is as above. Conditions: both partners purified.

In the case of B1, in test [1], the binding result was “binds”.
On to B2, for which, in test [2], the binding result is “binds”.
B3: the binding result in test [1] was “binds”.
